# Assays:
# human Siglec-6-Fc = human Siglec-6-Fc (Homo sapiens, UniProt O43699); assay: SPR
# human CD33-Fc = human CD33-Fc (Homo sapiens, UniProt P20138); assay: ELISA
# human CD22-Fc = human CD22-Fc (Homo sapiens, UniProt P20273); assay: ELISA
# human Siglec-8-Fc = human Siglec-8-Fc (Homo sapiens, UniProt Q9NYZ4); assay: ELISA
# human Siglec-8-Fc, sequence (Q9NYZ4 17-363): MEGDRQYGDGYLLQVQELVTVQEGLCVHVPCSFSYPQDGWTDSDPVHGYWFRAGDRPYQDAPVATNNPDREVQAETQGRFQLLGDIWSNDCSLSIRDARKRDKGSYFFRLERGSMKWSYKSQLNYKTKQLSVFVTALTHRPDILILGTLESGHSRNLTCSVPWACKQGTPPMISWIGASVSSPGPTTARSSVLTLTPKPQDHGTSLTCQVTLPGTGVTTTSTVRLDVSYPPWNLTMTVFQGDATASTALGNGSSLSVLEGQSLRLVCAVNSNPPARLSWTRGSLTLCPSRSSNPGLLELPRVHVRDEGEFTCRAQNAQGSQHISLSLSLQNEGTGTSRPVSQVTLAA
# human CD33-Fc, sequence (P20138 18-259): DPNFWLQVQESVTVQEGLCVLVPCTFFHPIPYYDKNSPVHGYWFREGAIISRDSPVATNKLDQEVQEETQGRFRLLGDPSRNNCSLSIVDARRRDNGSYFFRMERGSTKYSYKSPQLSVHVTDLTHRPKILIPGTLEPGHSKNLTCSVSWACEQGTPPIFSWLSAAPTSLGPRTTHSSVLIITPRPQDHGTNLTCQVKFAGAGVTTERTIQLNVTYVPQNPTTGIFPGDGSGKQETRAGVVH
# human Siglec-6-Fc, sequence (O43699 27-347): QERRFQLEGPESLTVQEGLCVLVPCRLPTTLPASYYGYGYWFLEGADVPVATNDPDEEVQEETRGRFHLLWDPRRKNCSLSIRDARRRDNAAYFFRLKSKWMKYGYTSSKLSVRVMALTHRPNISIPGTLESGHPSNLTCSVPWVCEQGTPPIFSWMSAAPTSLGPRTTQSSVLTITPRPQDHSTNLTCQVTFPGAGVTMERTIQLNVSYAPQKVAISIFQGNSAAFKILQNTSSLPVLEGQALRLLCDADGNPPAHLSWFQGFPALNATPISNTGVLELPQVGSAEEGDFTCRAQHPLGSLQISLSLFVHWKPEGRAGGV
# human CD22-Fc, sequence (P20273 20-687): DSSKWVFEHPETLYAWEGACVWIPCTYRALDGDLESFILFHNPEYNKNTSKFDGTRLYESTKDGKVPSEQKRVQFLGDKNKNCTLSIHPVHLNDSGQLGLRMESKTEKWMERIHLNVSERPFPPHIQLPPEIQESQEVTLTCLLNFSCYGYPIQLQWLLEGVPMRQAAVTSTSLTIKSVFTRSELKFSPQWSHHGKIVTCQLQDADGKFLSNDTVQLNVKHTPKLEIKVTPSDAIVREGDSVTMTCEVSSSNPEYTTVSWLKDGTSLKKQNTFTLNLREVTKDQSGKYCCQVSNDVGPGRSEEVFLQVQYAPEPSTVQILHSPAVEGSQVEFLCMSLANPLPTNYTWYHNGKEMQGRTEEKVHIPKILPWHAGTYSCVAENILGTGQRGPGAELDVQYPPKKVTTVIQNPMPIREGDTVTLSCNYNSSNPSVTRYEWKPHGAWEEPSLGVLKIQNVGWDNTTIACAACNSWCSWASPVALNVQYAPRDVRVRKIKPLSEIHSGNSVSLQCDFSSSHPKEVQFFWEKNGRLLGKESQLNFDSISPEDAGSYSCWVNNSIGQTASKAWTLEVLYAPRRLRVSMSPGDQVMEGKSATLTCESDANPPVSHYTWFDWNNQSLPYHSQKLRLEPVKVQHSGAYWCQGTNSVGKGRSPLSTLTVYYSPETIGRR
Kd (human Siglec-6-Fc) [nM],binding result (human CD33-Fc),binding result (human CD22-Fc),binding result (human Siglec-8-Fc),Binder
2.8,–,–,–,"JML-1 Fab (Fab, V domains shown) VH: KVQLLESGGGLVQPGRSLRLSCAASGFTFDDYGMHWVRQAPGKGLEWVSGISWNSGSIGYADSVKGRFTISRDNSKNTLYLQMNSLRAEDTAVYYCARGGQTIDIWGQGTMVTVSS VL: not shown"
–,no binding (tested: 1 μg/mL),no binding (tested: 1 μg/mL),no binding (tested: 1 μg/mL),"JML-1 IgG1 (antibody, V domains shown) VH: KVQLLESGGGLVQPGRSLRLSCAASGFTFDDYGMHWVRQAPGKGLEWVSGISWNSGSIGYADSVKGRFTISRDNSKNTLYLQMNSLRAEDTAVYYCARGGQTIDIWGQGTMVTVSS VL: not shown"

# Source: article PMC6125214 (Cancer immunology research, 2018)
